Data on one molecule can be found in article doi:10.1101/2024.06.16.599208, “A transcription-driven microgel network poised near the sol-gel transition”.

The data set addresses SAF-A SPRNK domain (SPRY/PNK) WT (UniProt Q00839 221-679). The data set is described as follows: EMSA; 8 mM HEPES pH 7.5, 60 mM KOAc, 16 mM MgOAc; 1 h on ice; 0.125 uM RNA, 0-8 uM protein; 7% acrylamide gel; n=3. The conditions noted are these: protein: recombinant; (nickel IMAC); label: DY681. (In EMSA bound probe runs differently from free probe, usually more slowly.)

Chain of SAF-A SPRNK domain (SPRY/PNK) WT (Q00839 221-679): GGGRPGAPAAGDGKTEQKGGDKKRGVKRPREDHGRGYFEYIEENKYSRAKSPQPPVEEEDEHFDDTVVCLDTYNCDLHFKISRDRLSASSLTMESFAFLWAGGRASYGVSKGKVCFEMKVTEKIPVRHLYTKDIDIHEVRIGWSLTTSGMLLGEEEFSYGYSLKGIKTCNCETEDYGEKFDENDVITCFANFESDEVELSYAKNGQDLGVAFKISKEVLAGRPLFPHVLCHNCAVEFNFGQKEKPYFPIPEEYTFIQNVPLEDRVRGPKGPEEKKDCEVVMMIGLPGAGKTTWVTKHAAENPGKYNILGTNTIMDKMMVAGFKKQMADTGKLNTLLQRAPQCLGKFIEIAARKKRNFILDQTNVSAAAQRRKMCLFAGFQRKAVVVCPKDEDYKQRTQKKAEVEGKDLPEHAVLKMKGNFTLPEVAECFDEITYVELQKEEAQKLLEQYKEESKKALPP

As to AAAAAAAAAAAAAAAAAAAA (ssRNA) [oligoA20-DY681], the binding result is “binds”.
